For experiment [1], the target named is T1, GST-HSF2N96C328 (human, UniProt Q03933 96-328).
T1 construct: Expressed in E. coli and immobilized on glutathione-Sepharose; also called HSF2N96C328 (GST fusion); not shown: glutathione S-transferase (GST) encoded by the pGEX-5X-1 vector (Pharmacia)
T1 sequence (looked up): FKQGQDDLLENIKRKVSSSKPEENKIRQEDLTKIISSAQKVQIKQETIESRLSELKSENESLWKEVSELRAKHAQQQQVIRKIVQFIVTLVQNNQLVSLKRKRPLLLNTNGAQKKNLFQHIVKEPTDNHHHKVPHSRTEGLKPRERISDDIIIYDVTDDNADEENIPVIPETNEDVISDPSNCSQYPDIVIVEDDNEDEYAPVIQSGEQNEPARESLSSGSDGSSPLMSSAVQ
The experiment in a line: GST pull-down, 35S-labeled in vitro translated deletion mutant.

The target in experiment [2] is T1, GST-HSF2N96C328. Briefly: GST pull-down with GST-HSF2N96C328; 35S-labeled in vitro translated protein.

B1: BP-C73 (deletion mutant of HSF2BP), in vitro translated, 35S-methionine-labeled (other)
chain: MGEAGAAEEACRHMGTKEEFVKVRKKDLERLTTEVMQIRDFLPRILNGEVLESFQKLKIVEKNLERKEQELEQ
modifications: 35S-methionine label
In the case of B1, the binding result in experiment [1] was “no binding”.

B2: HSF2 binding protein (HSF2BP), in vitro translated, 35S-methionine-labeled (other)
chain: MGEAGAAEEACRHMGTKEEFVKVRKKDLERLTTEVMQIRDFLPRILNGEVLESFQKLKIVEKNLERKEQELEQLKMDCEHFKARLETVQADNIREKKEKLALRQQLNEAKQQLLQQAEYCTEMGAAACTLLWGVSSSEEVVKAILGGDKALKFFSITGQTMESFVKSLDGDVQELDSDESQFVFALAGIVTNVAAIACGREFLVNSSRVLLDTILQLLGDLKPGQCTKLKVLMLMSLYNVSINLKGLKYISESPGFIPLLWWLLSDPDAEVCLHVLRLVQSVVLEPEVFSKSASEFRSSLPLQRILAMSKSRNPRLQTAAQELLEDLRTLEHNV
modifications: 35S-methionine label
notes: In vitro translated (TNT kit) from HSF2BP cDNA in pcDNA 3.1 His A, B or C; also called human HSF2BP; intact HSF2BP
For B2, the “proportion bound (% of the level of input)” value in experiment [2] is 12.9 % of the level of input.

B3: BP-C150 (deletion mutant of HSF2BP), in vitro translated, 35S-methionine-labeled (other)
chain: MGEAGAAEEACRHMGTKEEFVKVRKKDLERLTTEVMQIRDFLPRILNGEVLESFQKLKIVEKNLERKEQELEQLKMDCEHFKARLETVQADNIREKKEKLALRQQLNEAKQQLLQQAEYCTEMGAAACTLLWGVSSSEEVVKAILGGDKA
modifications: 35S-methionine label
notes: Vector pcDNA 3.1 His; tag residues are not described
In the case of B3, the “proportion bound (% of the level of input)” value in experiment [2] was 22.3 % of the level of input.

B4: BP-N115 (deletion mutant of HSF2BP), in vitro translated, 35S-methionine-labeled (other)
chain: QQAEYCTEMGAAACTLLWGVSSSEEVVKAILGGDKALKFFSITGQTMESFVKSLDGDVQELDSDESQFVFALAGIVTNVAAIACGREFLVNSSRVLLDTILQLLGDLKPGQCTKLKVLMLMSLYNVSINLKGLKYISESPGFIPLLWWLLSDPDAEVCLHVLRLVQSVVLEPEVFSKSASEFRSSLPLQRILAMSKSRNPRLQTAAQELLEDLRTLEHNV
modifications: 35S-methionine label
As to B4, the binding result in experiment [1] is reported as “no binding”.

B5: BP-C115 (deletion mutant of HSF2BP), in vitro translated, 35S-methionine-labeled (other)
chain: MGEAGAAEEACRHMGTKEEFVKVRKKDLERLTTEVMQIRDFLPRILNGEVLESFQKLKIVEKNLERKEQELEQLKMDCEHFKARLETVQADNIREKKEKLALRQQLNEAKQQLLQ
modifications: 35S-methionine label
With B5, the “proportion bound (% of the level of input)” value in experiment [2] was 5.7 % of the level of input.
